Results on one molecule are retold here after US20060286117A1, “Neuronally expressed stem cell factor modulates angiogenesis and neural stem cell migration to areas of brain injury” (priority 2003, published 2006).

One assay has as its system HUVEC. In words: Thymidine incorporation in HUVEC exposed to SCF. It is filed as cell-based, human. To be noted: basal medium, 48 hr. Here is the method: After ECs (3×10^3/well) were adhered to 96-well gelatin-coated plates (BD Discovery Labware, Bedford, Mass.), the EC growth medium was replaced by SCF ([…]) (R&D Systems, Minneapolis, Minn.) suspended in treatment medium (basal medium with 0.1% BSA) for an additional 48 hr (HUVEC and HMVEC-d) or 72 hr (BMVEC-b) with renewal of medium at 24 hr intervals. ECs were cultured for 4 hr in 0.25 μCi of [^3H]thymidine (Amersham Pharmacia Biotech, Piscataway, N.J.) at the end. High molecular mass [^3H]-radioactivity was precipitated and counted.
In general terms: Dividing cells build labelled thymidine or BrdU into new DNA.

For another assay, the system named is SVZ stem cells. In words: In vivo SVZ cell tracking by ventricular DiI or GFP adenovirus before SCF injection. The conditions noted are these: seven days after SCF injection. Set-up: species or system mouse. The protocol: For labeling of neural progenitors in vivo, BrdU (Roche) was administrated intraperitoneally twice a day, at 8-hour intervals, for 14 days (50 mg/kg body weight). Twenty hour from the last BrdU injection, several animals were killed and their brains were sectioned for BrdU immunostaining. Intracerebral injections were administered to the remaining animals. Stereotaxic surgery was performed as described in the “freeze” injury, and the injections were given at the position of 1 mm anterior to the bregma, 1.5 mm lateral to the midline, and 2.5 mm ventral to the dura. Mice received a suspension of rmSCF (3 μg in 3 μl of PBS; R&D systems) or PBS through a Hamilton syringe. Each injection took 15 min. Seven days from the intracranial injection, the animals were killed and the brains were processed for BrdU immunohistochemical analysis. For ventricular injection of DiI (1,1′-dioctadecyl-6,6′-di(4-sulfophenyl)-3,3,3′,3′-tetrametylindocarbocyanine; Molecular Probes) or adenovirus expressing GFP, 2 μl of 0.2% DiI in DMSO or 2 μl of replication incompetent adenovirus (10^8 plaque-forming units per μl) (He, T. C. et al. 1998 PNAS USA 95:2509-2514) was injected 0.5 mm posterior and 0.7 mm lateral to bregma, and 2 mm below the dura matter into the lateral ventricle. […] Seven days after SCF injection, the brains were sectioned and analyzed for DiI or GFP distributions.

For a further assay, the system named is HBMEC. In words: Matrigel tube formation (EC differentiation) assay, HBMEC. The format is cell-based, human. The protocol:
(§1) After the Matrigel (BD Biosciences) formed a solid gel in 24-well plates, serum-starved BMVEC-b cells were seeded on the gel surface at 10^5 cells per well and cultured in treatment medium in the presence or absence of SCF (20 ng/ml). Primary HBMEC were placed on the gel directly at 24×10^3 per well. Tubular formation was observed using an inverted phase contrast microscope, and images were captured at 4 and 18 hr after cell seeding. Each experiment was repeated two or three times.

The subject of another assay is BMVEC-b. In words: Matrigel tube formation (EC differentiation) assay, BMVEC-b. It is filed as cell-based, bovine. The conditions noted are these: SCF 20 ng/ml. Here is the method:
as §1

A further assay concerns glioma cells. In words: Glioma cell proliferation in vitro with SCF. It is filed as cell-based, human. The conditions noted are these: even high concentrations of SCF.
Assay [1] concerns c-Kit, MAPK and PI3K/Akt pathways in HBMEC. In words: Immunoblot of SCF/c-Kit signal transduction, HBMEC. The format is cell-based, human. The conditions noted are these: SCF 50 ng/ml. Here is the method:
Confluent-grown ECs were treated with 50 ng/ml of SCF for 5, 10, 15, and 30 min after 24 hr of serum starvation. The ECs were collected with RIPA lysis buffer (Upstate, Charlottesville, Va.) containing 50 mM NaF, 1 mM Na3VO4, […], and Protease Inhibitor Cocktail (Roche). The antibodies were purchased from Cell Signaling Technology, Inc. (Beverly, Mass.) or as mentioned otherwise. All the primary antibodies were used in a 1:1000 dilution except for the anti-SCF antibody, which was used in a 1:2000 dilution. The primary antibodies were anti-phospho-c-Kit, anti-phospho-MEK1/2 and anti-MEK1/2, anti-phospho-p44/42 MAPK and anti-p44/42 MAPK, anti-phospho-SAPK/JNK and anti-SAPK/JNK, anti-phospho-p38 MAPK and anti-p38 MAPK, anti-phospho-Akt and anti-Akt, anti-phospho-mTOR and anti-mTOR, anti-phospho-4E-BP1 and anti-4E-BP1, anti-SCF and anti-VEGF (Chemicon, Temecula, Calif.), and anti-β-tubulin (Sigma). Re-blotting was done after membranes were stripped by re-blot kit (Chemicon). Tie2 detection in Matrigel plugs from the in vivo Matrigel assay was carried out by immunoprecipitation and immunoblotting. The gel plugs were carefully separated from muscle and skin and homogenized with RIPA lysis buffer. The resulting total tissue lysates ([…]) were immunoprecipitated with Tie2 antibody (Santa Cruz Biotechnology, Inc., Santa Cruz, Calif.) and then analyzed by immunoblot with Tie2 antibody (Zadeh et al. 2004 Am J Pathol 162:467-476).
In general terms: Immunoblotting shows a protein as a band on a membrane.

The next assay relates to SCID mice. In words: In vivo angiogenesis assay, matrigel plug with rmSCF (Example 3). The conditions noted are these: rmSCF 50 ng/ml, subcutaneous, 7 days, vs PBS control. Set-up: species or system mouse. The protocol: Recombinant mouse SCF (rmSCF) was used at 50 ng/ml in an in vivo angiogenesis assay. The matrigel plug containing SCF or PBS control was placed subcutaneously in SCID mice for 7 days, and the blood vessel formation within the gel was examined by H&E staining. […] In the higher magnification figure on the right side, the red blood cells inside of the newly formed vessel are indicated by an arrow.

Entries after “also recorded” stand apart in the source; their conditions may differ.

B1: SCF: Stem cell factor protein (R&D Systems), ligand of the c-Kit receptor (protein)
chain: KEICGNPVTDNVKDITKLVANLPNDYMITLNYVAGMDVLPSHCWLRDMVIQLSLSLTTLLDKFSNISEGLSNYSIIDKLGKIVDDLVLCMEENAPKNIKESPKRPETRSFTPEEFFSIFNRSIDAFKDFMVASDTSDCVLSSTLGPEKDSRVSVTKPFMLPPVA
In the case of B1, the “proliferation (thymidine incorporation)” value with HUVEC was “stimulated proliferation in all three primary ECs in a dose-dependent manner”. Besides, in the assay on SVZ stem cells (ventricular DiI), the “DiI-labelled cells near the SCF injection site” value was “greater number of DiI positive cells; also recorded: significant numbers of DiI labelled cells”. Moreover, in the assay with SVZ stem cells (ventricular GFP adenovirus), the “GFP-positive cells in the SCF-injected cortex” value is reported as “a large number of GFP-positive cells had migrated”. Moreover, in the assay with HBMEC, the “time to mature appearing capillary-like structures” value was ≤ 18 h and the “time to migration in Matrigel” value was ≤ 4 h. Moreover, in the assay on BMVEC-b, the “time to mature appearing capillary-like structures” value was ≤ 18 h and the “time to migration in Matrigel” value was ≤ 4 h. The glioma cell proliferation entry with glioma cells is recorded as “failed to induce proliferation”. Besides, in assay [1], the “phosphorylation of Akt” value is recorded as “induced immediate phosphorylation”, the “phosphorylation of SAPK/JNK” value is listed as “could not induce phosphorylation”, the “phosphorylation of c-Kit” value is on record as “induced immediate phosphorylation” and the “phosphorylation of p38 MAPK” value is reported as “could not induce phosphorylation”. Also, in assay [1], the “phosphorylation of p44/42 MAPK” value is recorded as “induced immediate phosphorylation”. In addition, the “blood vessel formation within the matrigel plug (H&E)” value in the assay on SCID mice is “stimulates angiogenesis”.
